Reference: paper PMC5771124, “Characterization of a functional insertion sequence ISSau2 from Staphylococcus aureus”

Target: ISSau2 transposase OrfAB (Staphylococcus aureus E48 (ISSau2 in …, UniProt UPI0010FBCD58 1-522, F226L))
Experiment: EMSA; Mg2+, excess poly(dI-dC), 0.42 ug OrfAB
Conditions: protein: recombinant; tags: N-terminal 6-His (pET32a vector fusion); label: biotin end label

B1: IRL42 (dsDNA)
DNA 1: TGAAATGCTCCCTTCAAAGTAGACATTGAAAAAATGAAAACT
DNA 2: AGTTTTCATTTTTTCAATGTCTACTTTGAAGGGAGCATTTCA
binding result: binds
